Measurements published in paper PMC8902617.

Molecular target: filamentous actin (rabbit skeletal muscle actin) (UniProt P68135)
Assay: high-speed actin cosedimentation
Conditions: F-actin 0-25 µM; parent: 93.30 ± 3.05

other: % max (maximal binding, % protein in the pellet): 88.6%
Substance: ASAP1 BAR-PH (residues 1-431), His6-tagged, wild type (from UniProt Q9QWY8) K153A; K156A; K159A
